{"source": "paper PMC10689437", "biological_target": "SARS-CoV-2 non-structural protein 3 (nsp3), released from the expressed HA-nsp3-4-V5 polyprotein (SARS-CoV-2)", "assay": "cryo-EM structure", "data": [{"substance": "SARS-CoV-2 non-structural protein 3 (nsp3), released from the expressed HA-nsp3-4-V5 polyprotein (natural protein)", "values": [{"measurement": "stoichiometry N", "result": 6}]}]}
